Like-named read-outs stand apart in the source and are kept apart here.

For experiment [1], the target named is T1, relipidated TF (UniProt P13726 33-295, limits assumed). The experiment can be described thus: cell-based or functional assay.
Experiment [2] concerns the target rTF (rat TF) on HEK293 cells (rat, UniProt P42533 29-252). The experiment can be described thus: live cell staining of transfected HEK293, flow cytometry.
Experiment [3] deals with T1, relipidated TF. The experiment can be described thus: cell-based or functional assay. The source holds these as a separate data set.
Experiment [4] deals with T2, human TF ECD-His6 (human, UniProt P13726 33-251).
T2 construct: made in Expi293 cells; the entry holds the ECD with the C-terminal TG-His6; also called TF-His; hTF
The experiment can be described thus: BLI (ForteBio Octet).

Experiment [5] has as its target T3, cynomolgus TF ECD-His6 (cynomolgus monkey (Macaca fascicularis)).
T3 construct: made in Expi293 cells; also called TF-His; cTF
T3 chain: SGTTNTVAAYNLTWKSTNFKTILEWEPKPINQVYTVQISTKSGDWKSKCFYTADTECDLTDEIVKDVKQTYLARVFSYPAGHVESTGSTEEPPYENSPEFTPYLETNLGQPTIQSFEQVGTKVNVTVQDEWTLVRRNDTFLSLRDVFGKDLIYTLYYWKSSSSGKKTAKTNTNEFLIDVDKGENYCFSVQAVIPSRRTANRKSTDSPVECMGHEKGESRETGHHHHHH
The experiment is described as follows: BLI (ForteBio Octet). A general note: Biolayer interferometry detects binding as a change in optical thickness at a sensor tip.

Experiment [6] deals with T2, human TF ECD-His6. The experiment is described as follows: SPR (Biacore), antibody on chip, TF-His titrated.
The target of experiment [7] is T3, cynomolgus TF ECD-His6. The experiment is described as follows: SPR (Biacore), antibody on chip, TF-His titrated. (Surface plasmon resonance follows binding to a sensor surface in real time, without labels.)
The target of experiment [8] is T4, human Tissue Factor on MDA-MB-231 cells (human, UniProt P13726 33-295).
T4 construct: also called TF; hTF
The experiment can be described thus: flow cytometry, MDA-MB-231 cells; binding of 20 nM FVII-Fc-Alexa488 (competitor) left at 83 nM Ab.

Experiment [9] addresses T4, human Tissue Factor on MDA-MB-231 cells. The experiment is described as follows: cell-based or functional assay.
Experiment [10] has the same target. The experiment can be described thus: cell-based or functional assay. This is another data set of the same source.
For experiment [11], the target named is T1, relipidated TF. The experiment can be described thus: cell-based or functional assay. This is another data set of the same source.
In experiment [12] the target is T1, relipidated TF. The experiment is described as follows: cell-based or functional assay. The source holds these as a separate data set.

Chain of rTF (rat TF) on HEK293 cells (P42533 29-252): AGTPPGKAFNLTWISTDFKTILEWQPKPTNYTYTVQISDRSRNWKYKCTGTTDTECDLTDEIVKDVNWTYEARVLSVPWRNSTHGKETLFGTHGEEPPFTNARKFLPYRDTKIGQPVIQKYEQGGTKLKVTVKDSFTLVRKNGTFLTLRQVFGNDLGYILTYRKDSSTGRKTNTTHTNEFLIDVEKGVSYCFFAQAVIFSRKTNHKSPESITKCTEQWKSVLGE

B1: TF-011 (antibody, V domains shown)
VH: EVQLLESGGGLVQPGGSLRLSCAASGFTFSNYAMSWVRQAPGKGLEWVSSISGSGDYTYYTDSVKGRFTISRDNSKNTLYLQMNSLRAEDTAVYYCARSPWGYYLDSWGQGTLVTVSS
VL: DIQMTQSPPSLSASAGDRVTITCRASQGISSRLAWYQQKPEKAPKSLIYAASSLQSGVPSRFSGSGSGTDFTLTISSLQPEDFATYYCQQYNSYPYTFGQGTKLEIK
notes: previously described anti-TF antibody
On to B1, for which, in experiment [1], the “decrease of peak IIa concentration, TGA with 10 min pre-incubation, 100 nM Ab” value (“decrease … with 10 min pre-incubation, 100 nM Ab” below) is 91% and the “decrease of peak IIa concentration, TGA without pre-incubation, 100 nM Ab” value (“decrease … TGA without pre-incubation, 100 nM Ab” below) is 91%. In experiment [2], the binding result is listed as “no binding (tested: 15 µg/ml (100 nM))”.

B2: 5G9 (antibody, V domains shown)
VH: QVQLVESGGGVVQPGRSLRLSCKASGFNIKDYYMHWVRQAPGKGLEWIGLIDPENGNTIYDPKFQGRFTISADNSKNTLFLQMDSLRPEDTAVYYCARDNSYYFDYWGQGTPVTVSS
VL: DIQMTQSPSSLSASVGDRVTITCKASQDIRKYLNWYQQKPGKAPKLLIYYATSLADGVPSRFSGSGSGTDYTFTISSLQPEDIATYYCLQHGESPYTFGQGTKLEIT
On to B2, for which, in [1], the “decrease … with 10 min pre-incubation, 100 nM Ab” value amounted to 92% and the “decrease … TGA without pre-incubation, 100 nM Ab” value stood at 92%.

B3: 1F (antibody, human IgG1, V domains shown)
VH: EVQLLESGGGLVQPGGSLRLSCAASGFTFSDYAMGWVRQAPGKGLEWVSTISGSGGLTYYADSVKGRFTISRDNSKNTLYLQMNSLRAEDTAVYYCAKAPYGYYMDVWGKGTTVTVSS
VL: not shown
notes: human IgG1
A word on the Kd: it is a measure of binding affinity in units of concentration. With B3, in [1], the “decrease … with 10 min pre-incubation, 100 nM Ab” value was 93% and the “decrease … TGA without pre-incubation, 100 nM Ab” value came out at 92%. For the same molecule, in [3], the “TGA without pre-incubation, 10 nM Ab: % ETP” value turned out to be 58%; the “TGA without pre-incubation, 10 nM Ab: % Peak IIa” value was 21%; the “TGA without pre-incubation, 10 nM Ab: ETP” value came out at 1400 nM·min; the “TGA without pre-incubation, 10 nM Ab: Lag Time” value turned out to be 12.1 min. In experiment [3], the “TGA without pre-incubation, 10 nM Ab: Peak IIa” value was determined as 83 nM; the “TGA without pre-incubation, 10 nM Ab: ttPeak” value turned out to be 19.8 min; the “TGA without pre-incubation, 50 nM Ab: % Peak IIa” value came out at 8%; the “TGA without pre-incubation, 50 nM Ab: Lag Time” value amounted to 27.2 min. Also, in experiment [3], the “TGA without pre-incubation, 50 nM Ab: Peak IIa” value is 32 nM; the “TGA without pre-incubation, 50 nM Ab: ttPeak” value was found to be 36.8 min; the “TGA without pre-incubation, 100 nM Ab: % Peak IIa” value came out at 7%; the “TGA without pre-incubation, 100 nM Ab: Lag Time” value worked out at 25.9 min. Further, in experiment [3], the “TGA without pre-incubation, 100 nM Ab: Peak IIa” value is 29 nM and the “TGA without pre-incubation, 100 nM Ab: ttPeak” value came to 37.9 min. Besides, binding in experiment [4] was characterised by a dissociation constant (Kd) of 1280 pM. The same molecule displayed a Kd in [5] of 1430 pM. Also, the binding result in experiment [2] was “no binding (tested: 15 µg/ml (100 nM))”. For the same molecule, the dissociation constant Kd in experiment [6] is 310 pM. This molecule yielded a dissociation constant (Kd) in experiment [7] of 260 pM.

B4: 25G (antibody, human IgG1, kappa, V domains shown)
VH: QVQLVQSGAEVKKPGASVKVSCKASGYTFRSYGISWVRQAPGQGLEWMGWVAPYNGNTNYAQKLQGRVTMTTDTSTSTAYMELRSLRSDDTAVYYCARDAGTYSPYGYGMDVWGQGTTVTVSS
VL: DIQMTQSPSTLSASVGDRVTITCRASQSISSWLAWYQQKPGKAPKLLIYKASSLESGVPSRFSGSGSGTEFTLTISSLQPDDFATYYCQQFQSLPPFTFGGGTKVEIKR
notes: Human anti-TF IgG1
For the molecule B4, in experiment [8], the “% FVIIa” value worked out at 93%. Also, in experiment [9], the “% FXa, 12.5 nM Ab” value was 99%; the “% FXa, 25 nM Ab” value came to 109%; the “% FXa, 100 nM Ab” value stood at 116%. Also, in experiment [10], the “% IL8, 2.56 nM Ab” value amounted to 60%; the “% IL8, 6.4 nM Ab” value worked out at 22%; the “% IL8, 16 nM Ab” value stood at 16%; the “% IL8, 40 nM Ab” value came out at 10%. For the same molecule, the “% IL8, 100 nM Ab” value in experiment [10] amounted to 9%.

B5: 39A (antibody, human IgG1, V domains shown)
VH: QVQLVQSGAEVKKPGSSVKVSCKASGGTFSSNAIGWVRQAPGQGLEWMGSIIPIIGFANYAQKFQGRVTITADESTSTAYMELSSLRSEDTAVYYCARDSGYYYGASSFGMDVWGQGTTVTVSS
VL: EIVMTQSPATLSVSPGERATLSCRASQSVSSNLAWYQQKPGQAPRLLIYGASTRATGIPARFSGSGSGTEFTLTISSLQSEDFAVYYCEQYNNLPLTFGGGTKVEIK
notes: human IgG1
As to B5, in experiment [11], the “TGA with 10 min pre-incubation, 10 nM Ab: % Peak IIa” value turned out to be 11%; the “TGA with 10 min pre-incubation, 10 nM Ab: Lag Time” value amounted to 20.9 min; the “TGA with 10 min pre-incubation, 10 nM Ab: Peak IIa” value was found to be 30 nM; the “TGA with 10 min pre-incubation, 10 nM Ab: ttPeak” value was 30.8 min. Further, in experiment [11], the “TGA with 10 min pre-incubation, 50 nM Ab: % Peak IIa” value amounted to 8%; the “TGA with 10 min pre-incubation, 50 nM Ab: Lag Time” value worked out at 29 min; the “TGA with 10 min pre-incubation, 50 nM Ab: Peak IIa” value was found to be 21 nM; the “TGA with 10 min pre-incubation, 50 nM Ab: ttPeak” value is 39.7 min. Also, in experiment [11], the “TGA with 10 min pre-incubation, 100 nM Ab: % Peak IIa” value was 6%; the “TGA with 10 min pre-incubation, 100 nM Ab: Lag Time” value is 32.1 min; the “TGA with 10 min pre-incubation, 100 nM Ab: Peak IIa” value was found to be 17 nM; the “TGA with 10 min pre-incubation, 100 nM Ab: ttPeak” value was 43.2 min. In [1], the “decrease … with 10 min pre-incubation, 100 nM Ab” value is 93% and the “decrease … TGA without pre-incubation, 100 nM Ab” value amounted to 91%. Moreover, in experiment [3], the “TGA without pre-incubation, 10 nM Ab: % ETP” value stood at 55%; the “TGA without pre-incubation, 10 nM Ab: % Peak IIa” value was 20%; the “TGA without pre-incubation, 10 nM Ab: ETP” value was determined as 1330 nM·min; the “TGA without pre-incubation, 10 nM Ab: Lag Time” value was 12.1 min. In experiment [3], the “TGA without pre-incubation, 10 nM Ab: Peak IIa” value stood at 82 nM; the “TGA without pre-incubation, 10 nM Ab: ttPeak” value came to 19.6 min; the “TGA without pre-incubation, 50 nM Ab: % Peak IIa” value was 7%; the “TGA without pre-incubation, 50 nM Ab: Lag Time” value was 30.5 min. In [3], the “TGA without pre-incubation, 50 nM Ab: Peak IIa” value is 30 nM; the “TGA without pre-incubation, 50 nM Ab: ttPeak” value amounted to 40 min; the “TGA without pre-incubation, 100 nM Ab: % Peak IIa” value turned out to be 6%; the “TGA without pre-incubation, 100 nM Ab: Lag Time” value is 28.9 min. Further, in [3], the “TGA without pre-incubation, 100 nM Ab: Peak IIa” value turned out to be 26 nM and the “TGA without pre-incubation, 100 nM Ab: ttPeak” value came to 40.1 min. Further, in experiment [12], the “TGA without pre-incubation, 10 nM Ab: % ETP” value came to 58%; the “TGA without pre-incubation, 10 nM Ab: % Peak IIa” value was 24%; the “TGA without pre-incubation, 10 nM Ab: ETP” value was 1330 nM·min; the “TGA without pre-incubation, 10 nM Ab: Lag Time” value was determined as 12.4 min. For the same molecule, in experiment [12], the “TGA without pre-incubation, 10 nM Ab: Peak IIa” value came to 84 nM; the “TGA without pre-incubation, 10 nM Ab: ttPeak” value turned out to be 20.7 min; the “TGA without pre-incubation, 50 nM Ab: % Peak IIa” value was 8%; the “TGA without pre-incubation, 50 nM Ab: Lag Time” value stood at 33.1 min. For the same molecule, in [12], the “TGA without pre-incubation, 50 nM Ab: Peak IIa” value was 29 nM; the “TGA without pre-incubation, 50 nM Ab: ttPeak” value came to 43.2 min; the “TGA without pre-incubation, 100 nM Ab: % Peak IIa” value amounted to 6%; the “TGA without pre-incubation, 100 nM Ab: Lag Time” value came to 38.1 min. Also, in [12], the “TGA without pre-incubation, 100 nM Ab: Peak IIa” value came to 22 nM and the “TGA without pre-incubation, 100 nM Ab: ttPeak” value came out at 48.3 min. The affinity in experiment [4], expressed as Kd, was 830 pM. Further, the Kd in experiment [5] was determined as 570 pM. In addition, in experiment [2], the binding result was “no binding (tested: 15 µg/ml (100 nM))”. Moreover, in [6], the Kd stood at 90 pM. The molecule further gave a Kd in experiment [7] of 80 pM.

These data come from patent publication US20240166765A1 (ICONIC THERAPEUTICS, published 2024).
